Laboratory results reported in patent US6787341B2, “Pharmacological targeting of bacterial DNA ligase for treatment and prevention of bacterial infections” (priority 2001, dated 2004).

Experiments:
Type in all cases: biochemical
E. coli LigA [1] = settings: for Nick Joining Activity (% of WT): specific activity by protein titration under steady-state conditions, normalized to wild-type ligase
Procedure: (§1) FIG. 12A: Aliquots (5 μg) of wild-type (WT) E. coli ligase, N-terminal deletion mutants NΔ38 and NΔ78, and the full-length ligase proteins containing the indicated alanine mutations in domain Ia were analyzed by SDS-PAGE. A Coomassie blue-stained gel is shown. FIG. 12B: Ligase adenylation reaction mixtures (20 μl) containing 50 mM Tris-HCl (pH 7.5), 5 mM DTT, 5 mM MgCl2, 1 μM [α-^32P]NAD^+ and 8 pmol of WT ligase, NΔ38, NΔ78, or the indicated alanine mutants were incubated for 5 min at 37° C. The reaction products were resolved by SDS-PAGE and visualized by autoradiography. FIG. 12C: Nick joining reaction mixtures (20 μl) containing 50 mM Tris-HCl (pH 7.5), 10 mM (NH4)2SO4, 5 mM DTT, 5 mM MgCl2, 20 μM NAD^+, 1 pmol of ^32P-labeled nicked DNA, and increasing amounts of WT ligase or the indicated alanine mutants were incubated for 10 min at 22° C. The extents of ligation are plotted as a function of input protein.
To further probe the role of domain Ia in NAD^+ recognition and nucleotidyl transfer, single alanine substitutions were introduced at six positions in the Ia domain of E. coli LigA. The six mutated Eco ligase residues—Glu10, Tyr22, His23, Asp32, Tyr35, and Asp36—correspond to the six residues that were subjected to alanine scanning mutagenesis in AmEPV ligase (FIG. 11). […] The conserved positions are denoted by shaded boxes in FIG. 11. The Eco ligase mutants E10A, Y22A, H23A, D32A, Y35A, and D36A were produced in E. coli and purified by Ni-agarose chromatography in parallel with wild-type ligase (FIG. 12A).
To evaluate the roles of charge, hydrogen bonding potential, and steric constraints in the functions of the domain Ia residues implicated in the step 1 reaction with NAD^+, the effects of conservative substitutions were tested. Tyr22 and Tyr35 were replaced by Phe and Ser, His23 was changed to Tyr, and Asp32 and Asp36 were mutated to Glu and Asn. The recombinant mutant ligases were purified from soluble bacterial extracts by Ni-agarose chromatography (FIG. 15A). The specific activity of each mutant was determined under steady-state conditions by protein titration and normalized to the specific activity of wild-type ligase.

E. coli LigA [2] = settings: for phosphodiester formation at pre-adenylated nick: qualitative, magnesium, no added NAD+
Procedure: Reaction mixtures containing 1 pmol of ^32P-labeled nicked DNA-adenylate (AppDNA) and either 8 pmol of wild-type (WT) E. coli ligase, deletion mutants NΔ38 and NΔ78, or the full-length ligase proteins containing the indicated alanine mutations in domain Ia were incubated for 60 min at 22° C. The reaction products were resolved by denaturing PAGE. An autoradiograph of the gel is shown. Control reaction mixtures containing either ^32P-labeled nicked DNA-adenylate (AppDNA) or nicked DNA (pDNA) substrates and no ligase are shown in lanes -. The positions of the pDNA, AppDNA, and ligated 36-mer DNA strands are indicated by arrows on the right. The position of the radiolabeled phosphate of AppDNA is denoted by •. The nicked DNA-adenylate substrate used in the ligation reactions is illustrated at the bottom.
The nicked DNA-adenylate substrate is illustrated in FIG. 13. The DNA-adenylate ligation reaction mixtures (20 μl) contained 50 mM Tris-HCl (pH 7.5), 5 mM DTT, 5 mM MgCl2, 200 fmol of nicked DNA-adenylate substrate, 2 pmol of wild-type or mutant EcoLigA proteins as specified were incubated at 22° C. The sealing reactions were initiated by adding ligase. Aliquots (20 μl) were withdrawn at the times specified and quenched immediately with EDTA and formamide. The products were resolved by denaturing PAGE and the extents of ligation were determined by scanning the gel with a phosphorimager. The extent of strand joining is plotted as a function of reaction time.
The third step of the ligation pathway entails attack of the 3′ OH of the nick on the 5′ PO4 of the DNA-adenylate to form a phosphodiester and release AMP. Step 3 of the ligation reaction was assayed using a pre-adenylated nicked DNA substrate labeled with ^32P on the 5′ PO4 of the DNA-adenylate strand (FIG. 13).

E. coli LigA [3] = settings: for ligase adenylation (ligase-AMP formation) with NAD+: qualitative
Procedure: as §1
FIG. 15A: Aliquots (5 μg) of wild-type (WT) E. coli ligase and proteins containing the indicated mutations in domain Ia were analyzed by SDS-PAGE. The Coomassie blue-stained gel is shown. The positions and sizes (in kDa) of marker proteins are indicated on the left. FIG. 15B: Ligase adenylation reaction mixtures (20 μl) containing 50 mM Tris-HCl (pH 7.5), 5 mM DTT, 5 mM MgCl2, 1 μM [α-^32P]NAD^+ and 8 pmol of WT ligase or the indicated mutants were incubated for 5 min at 37° C. The reaction products were resolved by SDS-PAGE and visualized by autoradiography.
Reaction mixtures containing (per 20 μl) 50 mM Tris-HCl (pH 7.5), 5 mM DTT, 5 mM MgCl2, 1 μM [^32P-AMP]NAD^+ and 8 pmol of ligase were incubated at 22° C. Aliquots (20 μl) were withdrawn at 15, 30, 60 and 120 s and then quenched immediately with SDS. The products were analyzed by SDS-PAGE. Formation of the ligase-[^32P]AMP adduct is plotted as a function of time.
The first step in DNA ligation involves formation of a covalent enzyme-adenylate intermediate.

B1: H23A: E. coli LigA with His23 replaced by alanine (protein, UniProt P15042 1-671, looked up, variant H23A)
DNA ligase: MESIEQQLTELRTTLRHHEYLYAVMDAPEIPDAEYDRLMRELRELETKHPELITPDSPTQRVGAAPLAAFSQIRHEVPMLSLDNVFDEESFLAFNKRVQDRLKNNEKVTWCCELKLDGLAVSILYENGVLVSAATRGDGTTGEDITSNVRTIRAIPLKLHGENIPARLEVRGEVFLPQAGFEKINEDARRTGGKVFANPRNAAAGSLRQLDPRITAKRPLTFFCYGVGVLEGGELPDTHLGRLLQFKKWGLPVSDRVTLCESAEEVLAFYHKVEEDRPTLGFDIDGVVIKVNSLAQQEQLGFVARAPRWAVAFKFPAQEQMTFVRDVEFQVGRTGAITPVARLEPVHVAGVLVSNATLHNADEIERLGLRIGDKVVIRRAGDVIPQVVNVVLSERPEDTREVVFPTHCPVCGSDVERVEGEAVARCTGGLICGAQRKESLKHFVSRRAMDVDGMGDKIIDQLVEKEYVHTPADLFKLTAGKLTGLERMGPKSAQNVVNALEKAKETTFARFLYALGIREVGEATAAGLAAYFGTLEALEAASIEELQKVPDVGIVVASHVHNFFAEESNRNVISELLAEGVHWPAPIVINAEEIDSPFAGKTVVLTGSLSQMSRDDAKARLVELGAKVAGSVSKKTDLVIAGEAAGSKLAKAQELGIEVIDEAEMLRLLGS
With B1 the “Nick Joining Activity (% of WT)” value (E. coli LigA [1]) was 10 % of WT, the “phosphodiester formation at pre-adenylated nick” value (E. coli LigA [2]) was “catalytically active” and the “rate of ligase adenylation (kinetic pattern)” value (E. coli LigA [3]; 1 μM [32P-AMP]NAD+, 15-120 s) was “reacted slowly”. The “ligase adenylation (ligase-AMP formation) with NAD+” value (“ligase adenylation … with NAD+” below) (E. coli LigA [3]) was “less active”.

B2: E10A: E. coli LigA with Glu10 replaced by alanine in domain Ia (protein, UniProt P15042 1-671, looked up, variant E10A)
DNA ligase: MESIEQQLTALRTTLRHHEYLYHVMDAPEIPDAEYDRLMRELRELETKHPELITPDSPTQRVGAAPLAAFSQIRHEVPMLSLDNVFDEESFLAFNKRVQDRLKNNEKVTWCCELKLDGLAVSILYENGVLVSAATRGDGTTGEDITSNVRTIRAIPLKLHGENIPARLEVRGEVFLPQAGFEKINEDARRTGGKVFANPRNAAAGSLRQLDPRITAKRPLTFFCYGVGVLEGGELPDTHLGRLLQFKKWGLPVSDRVTLCESAEEVLAFYHKVEEDRPTLGFDIDGVVIKVNSLAQQEQLGFVARAPRWAVAFKFPAQEQMTFVRDVEFQVGRTGAITPVARLEPVHVAGVLVSNATLHNADEIERLGLRIGDKVVIRRAGDVIPQVVNVVLSERPEDTREVVFPTHCPVCGSDVERVEGEAVARCTGGLICGAQRKESLKHFVSRRAMDVDGMGDKIIDQLVEKEYVHTPADLFKLTAGKLTGLERMGPKSAQNVVNALEKAKETTFARFLYALGIREVGEATAAGLAAYFGTLEALEAASIEELQKVPDVGIVVASHVHNFFAEESNRNVISELLAEGVHWPAPIVINAEEIDSPFAGKTVVLTGSLSQMSRDDAKARLVELGAKVAGSVSKKTDLVIAGEAAGSKLAKAQELGIEVIDEAEMLRLLGS
B2 was tested, and the “Nick Joining Activity (% of WT)” value (E. coli LigA [1]) was 90 % of WT, the “phosphodiester formation at pre-adenylated nick” value (E. coli LigA [2]) was “catalytically active” and the “ligase adenylation … with NAD+” value (E. coli LigA [3]) was “did not affect”.

B3: D32A: E. coli LigA with Asp32 replaced by alanine (protein, UniProt P15042 1-671, looked up, variant D32A)
DNA ligase: MESIEQQLTELRTTLRHHEYLYHVMDAPEIPAAEYDRLMRELRELETKHPELITPDSPTQRVGAAPLAAFSQIRHEVPMLSLDNVFDEESFLAFNKRVQDRLKNNEKVTWCCELKLDGLAVSILYENGVLVSAATRGDGTTGEDITSNVRTIRAIPLKLHGENIPARLEVRGEVFLPQAGFEKINEDARRTGGKVFANPRNAAAGSLRQLDPRITAKRPLTFFCYGVGVLEGGELPDTHLGRLLQFKKWGLPVSDRVTLCESAEEVLAFYHKVEEDRPTLGFDIDGVVIKVNSLAQQEQLGFVARAPRWAVAFKFPAQEQMTFVRDVEFQVGRTGAITPVARLEPVHVAGVLVSNATLHNADEIERLGLRIGDKVVIRRAGDVIPQVVNVVLSERPEDTREVVFPTHCPVCGSDVERVEGEAVARCTGGLICGAQRKESLKHFVSRRAMDVDGMGDKIIDQLVEKEYVHTPADLFKLTAGKLTGLERMGPKSAQNVVNALEKAKETTFARFLYALGIREVGEATAAGLAAYFGTLEALEAASIEELQKVPDVGIVVASHVHNFFAEESNRNVISELLAEGVHWPAPIVINAEEIDSPFAGKTVVLTGSLSQMSRDDAKARLVELGAKVAGSVSKKTDLVIAGEAAGSKLAKAQELGIEVIDEAEMLRLLGS
With B3 the “nick ligation (qualitative)” value (E. coli LigA [1]) was “virtually inert”, the “Nick Joining Activity (% of WT)” value (E. coli LigA [1]) was 0.2 % of WT and the “phosphodiester formation at pre-adenylated nick” value (E. coli LigA [2]) was “catalytically active”. The “ligase adenylation … with NAD+” value (E. coli LigA [3]) was “virtually inert”.

B4: Y22A: E. coli LigA with Tyr22 replaced by alanine (protein, UniProt P15042 1-671, looked up, variant Y22A)
DNA ligase: MESIEQQLTELRTTLRHHEYLAHVMDAPEIPDAEYDRLMRELRELETKHPELITPDSPTQRVGAAPLAAFSQIRHEVPMLSLDNVFDEESFLAFNKRVQDRLKNNEKVTWCCELKLDGLAVSILYENGVLVSAATRGDGTTGEDITSNVRTIRAIPLKLHGENIPARLEVRGEVFLPQAGFEKINEDARRTGGKVFANPRNAAAGSLRQLDPRITAKRPLTFFCYGVGVLEGGELPDTHLGRLLQFKKWGLPVSDRVTLCESAEEVLAFYHKVEEDRPTLGFDIDGVVIKVNSLAQQEQLGFVARAPRWAVAFKFPAQEQMTFVRDVEFQVGRTGAITPVARLEPVHVAGVLVSNATLHNADEIERLGLRIGDKVVIRRAGDVIPQVVNVVLSERPEDTREVVFPTHCPVCGSDVERVEGEAVARCTGGLICGAQRKESLKHFVSRRAMDVDGMGDKIIDQLVEKEYVHTPADLFKLTAGKLTGLERMGPKSAQNVVNALEKAKETTFARFLYALGIREVGEATAAGLAAYFGTLEALEAASIEELQKVPDVGIVVASHVHNFFAEESNRNVISELLAEGVHWPAPIVINAEEIDSPFAGKTVVLTGSLSQMSRDDAKARLVELGAKVAGSVSKKTDLVIAGEAAGSKLAKAQELGIEVIDEAEMLRLLGS
In the case of B4, the “nick ligation (qualitative)” value (E. coli LigA [1]) is reported as “virtually inert”, the “Nick Joining Activity (% of WT)” value (E. coli LigA [1]) is reported as 0.1 % of WT and the “effect on rate or extent (yield) of phosphodiester formation at a pre-adenylated nick” value (E. coli LigA [2]) is reported as “no effect”. The “phosphodiester formation at pre-adenylated nick” value (E. coli LigA [2]) was “catalytically active” and the “ligase adenylation … with NAD+” value (E. coli LigA [3]) was “virtually inert”.
